Key:
Test in all cases: cell-based or functional assay
[1] = molecular target: T1, STK3 (MST2) Serine/threonine kinase 3 (STE20 homolog, yeast) (UniProt Q13188 1-491, limits assumed)
T1 sequence (looked up): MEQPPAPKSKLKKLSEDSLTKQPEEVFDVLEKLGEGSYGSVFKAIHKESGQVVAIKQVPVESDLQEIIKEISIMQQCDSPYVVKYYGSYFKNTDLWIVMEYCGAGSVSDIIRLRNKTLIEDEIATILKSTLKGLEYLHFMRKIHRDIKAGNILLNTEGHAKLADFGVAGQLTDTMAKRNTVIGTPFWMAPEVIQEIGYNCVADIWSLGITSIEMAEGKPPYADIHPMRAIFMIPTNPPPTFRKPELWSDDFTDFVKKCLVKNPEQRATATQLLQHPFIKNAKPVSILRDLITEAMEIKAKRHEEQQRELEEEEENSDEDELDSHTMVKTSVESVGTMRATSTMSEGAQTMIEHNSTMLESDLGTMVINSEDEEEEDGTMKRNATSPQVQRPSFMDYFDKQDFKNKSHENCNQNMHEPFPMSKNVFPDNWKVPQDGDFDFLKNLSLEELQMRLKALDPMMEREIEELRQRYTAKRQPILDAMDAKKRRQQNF

GRK7 = molecular target: T2, GRK7 (UniProt Q8WTQ7 1-553, limits assumed)
T2 sequence (looked up): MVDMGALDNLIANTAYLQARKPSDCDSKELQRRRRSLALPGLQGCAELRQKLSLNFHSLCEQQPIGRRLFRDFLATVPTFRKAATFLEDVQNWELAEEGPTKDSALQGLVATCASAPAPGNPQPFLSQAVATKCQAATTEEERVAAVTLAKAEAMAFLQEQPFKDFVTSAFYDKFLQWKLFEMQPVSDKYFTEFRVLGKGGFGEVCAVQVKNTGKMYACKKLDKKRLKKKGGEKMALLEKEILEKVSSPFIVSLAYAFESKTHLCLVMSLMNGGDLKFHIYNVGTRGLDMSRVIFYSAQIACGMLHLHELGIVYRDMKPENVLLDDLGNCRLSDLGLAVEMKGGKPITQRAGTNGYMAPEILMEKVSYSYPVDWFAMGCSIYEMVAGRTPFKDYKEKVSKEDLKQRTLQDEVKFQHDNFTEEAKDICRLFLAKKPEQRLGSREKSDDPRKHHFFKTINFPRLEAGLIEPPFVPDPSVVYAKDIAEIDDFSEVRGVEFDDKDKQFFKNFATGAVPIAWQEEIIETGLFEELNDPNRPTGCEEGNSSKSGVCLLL

PDK1 = molecular target: T3, PDK1 (human (printed as (h)), UniProt O15530 1-556, limits assumed)
T3 sequence (looked up): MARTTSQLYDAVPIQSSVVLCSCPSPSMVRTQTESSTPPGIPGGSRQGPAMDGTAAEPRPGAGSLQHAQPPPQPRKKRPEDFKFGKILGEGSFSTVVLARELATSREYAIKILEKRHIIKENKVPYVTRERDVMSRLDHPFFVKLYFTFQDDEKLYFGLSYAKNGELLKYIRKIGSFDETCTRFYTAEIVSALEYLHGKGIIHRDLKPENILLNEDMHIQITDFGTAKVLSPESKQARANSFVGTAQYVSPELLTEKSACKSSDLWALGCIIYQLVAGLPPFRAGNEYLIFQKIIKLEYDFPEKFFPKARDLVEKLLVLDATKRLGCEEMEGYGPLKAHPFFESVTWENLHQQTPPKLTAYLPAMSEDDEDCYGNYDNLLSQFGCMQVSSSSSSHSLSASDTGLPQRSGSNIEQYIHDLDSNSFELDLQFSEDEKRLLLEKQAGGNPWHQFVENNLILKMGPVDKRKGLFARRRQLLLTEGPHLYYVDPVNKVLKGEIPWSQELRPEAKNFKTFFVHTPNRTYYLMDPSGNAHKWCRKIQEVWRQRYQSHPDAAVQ

[2] = molecular target: T4, CHEK1 (CHK1) CHK1 checkpoint homolog (UniProt O14757 1-476, limits assumed)
T4 sequence (looked up): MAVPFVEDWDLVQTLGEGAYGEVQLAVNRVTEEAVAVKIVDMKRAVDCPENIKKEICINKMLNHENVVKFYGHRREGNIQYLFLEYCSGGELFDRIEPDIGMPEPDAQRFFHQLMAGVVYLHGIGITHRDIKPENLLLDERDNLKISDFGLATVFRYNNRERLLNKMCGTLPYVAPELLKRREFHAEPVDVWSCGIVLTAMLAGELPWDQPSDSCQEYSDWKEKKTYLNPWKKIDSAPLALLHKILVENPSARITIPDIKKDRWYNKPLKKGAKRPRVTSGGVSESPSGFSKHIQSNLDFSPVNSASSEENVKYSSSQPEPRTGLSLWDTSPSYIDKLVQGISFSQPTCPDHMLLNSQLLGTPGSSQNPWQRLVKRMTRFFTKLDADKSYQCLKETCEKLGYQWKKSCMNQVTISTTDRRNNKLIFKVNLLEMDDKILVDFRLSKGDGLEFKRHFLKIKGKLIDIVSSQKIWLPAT

[3] = molecular target: STK24 (MST3) Serine/threonine kinase 24 (STE20 homolog, yeast) (UniProt Q9Y6E0 1-443, limits assumed)
[4] = molecular target: STK25 (YSK1) Serine/threonine kinase 25 (STE20 homolog, yeast) (UniProt O00506 1-426, limits assumed)
PRKCI (PKC iota) = molecular target: T5, PRKCI (PKC iota) (UniProt P41743 1-596, limits assumed)
T5 sequence (looked up): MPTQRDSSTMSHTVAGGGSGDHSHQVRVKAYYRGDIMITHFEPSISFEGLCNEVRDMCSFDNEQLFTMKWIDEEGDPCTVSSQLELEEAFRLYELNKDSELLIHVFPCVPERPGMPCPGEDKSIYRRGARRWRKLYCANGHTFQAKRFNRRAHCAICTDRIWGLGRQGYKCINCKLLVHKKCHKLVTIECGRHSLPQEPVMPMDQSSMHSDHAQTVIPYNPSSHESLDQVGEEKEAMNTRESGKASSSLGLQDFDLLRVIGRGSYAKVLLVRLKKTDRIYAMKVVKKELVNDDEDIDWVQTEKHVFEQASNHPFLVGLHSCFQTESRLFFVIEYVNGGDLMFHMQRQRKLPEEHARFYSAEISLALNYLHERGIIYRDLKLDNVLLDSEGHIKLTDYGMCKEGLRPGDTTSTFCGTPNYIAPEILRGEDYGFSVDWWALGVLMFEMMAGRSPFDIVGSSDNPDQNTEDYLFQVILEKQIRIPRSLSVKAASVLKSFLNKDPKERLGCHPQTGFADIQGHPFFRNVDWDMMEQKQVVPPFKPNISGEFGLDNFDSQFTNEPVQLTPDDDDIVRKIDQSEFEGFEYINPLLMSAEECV
Note: test concentration or dose not given here.

Sequence of STK24 (MST3) Serine/threonine kinase 24 (STE20 homolog, yeast) (Q9Y6E0 whole entry): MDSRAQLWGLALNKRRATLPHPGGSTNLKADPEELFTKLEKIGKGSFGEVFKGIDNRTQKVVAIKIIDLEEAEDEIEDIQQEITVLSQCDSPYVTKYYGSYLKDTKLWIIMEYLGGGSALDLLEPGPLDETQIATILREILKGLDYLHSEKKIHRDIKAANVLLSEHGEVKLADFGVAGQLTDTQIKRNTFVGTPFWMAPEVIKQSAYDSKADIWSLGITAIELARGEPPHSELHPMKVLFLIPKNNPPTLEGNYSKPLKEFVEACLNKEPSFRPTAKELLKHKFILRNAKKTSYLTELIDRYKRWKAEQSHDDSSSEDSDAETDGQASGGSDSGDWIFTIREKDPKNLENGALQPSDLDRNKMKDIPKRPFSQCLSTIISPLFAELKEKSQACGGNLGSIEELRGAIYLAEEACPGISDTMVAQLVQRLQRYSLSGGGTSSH
Sequence of STK25 (YSK1) Serine/threonine kinase 25 (STE20 homolog, yeast) (O00506 whole entry): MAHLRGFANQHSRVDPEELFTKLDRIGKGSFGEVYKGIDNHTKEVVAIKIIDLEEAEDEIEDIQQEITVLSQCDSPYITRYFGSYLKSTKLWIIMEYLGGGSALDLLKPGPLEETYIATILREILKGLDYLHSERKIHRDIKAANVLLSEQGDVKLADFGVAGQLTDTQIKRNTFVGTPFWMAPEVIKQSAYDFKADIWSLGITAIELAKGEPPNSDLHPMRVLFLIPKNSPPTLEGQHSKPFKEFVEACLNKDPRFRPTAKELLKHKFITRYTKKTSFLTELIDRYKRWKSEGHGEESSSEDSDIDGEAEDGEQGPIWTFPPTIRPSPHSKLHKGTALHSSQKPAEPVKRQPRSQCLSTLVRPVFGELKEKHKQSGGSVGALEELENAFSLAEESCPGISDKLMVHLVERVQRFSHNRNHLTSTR

B1: D3 peptide (peptide)
peptide: SGRPPMIVWFNRPFLIAVSHTHGQTILFMAKVINPVGA
[1]
  % Inhibition mean: 90.4%
GRK7
  % Inhibition mean: 49.9%
PDK1
  % Inhibition mean: 64%
[2]
  % Inhibition mean: 74%
[3]
  % Inhibition mean: 98.6%
[4]
  % Inhibition mean: 93.1%
PRKCI (PKC iota)
  % Inhibition mean: 48.9%

Source: patent US20100184658A1 (published 2010)
